The results in this text go back to the supplement of paper PMC6379048.

For orientation: Kd means a measure of binding affinity in units of concentration. Lower therefore signals higher affinity.

What all share (test): Kd (EC50 corrected by depletion factor)
For one series, the target named is T1, HNRNPF (UniProt P52597).
T1 sequence: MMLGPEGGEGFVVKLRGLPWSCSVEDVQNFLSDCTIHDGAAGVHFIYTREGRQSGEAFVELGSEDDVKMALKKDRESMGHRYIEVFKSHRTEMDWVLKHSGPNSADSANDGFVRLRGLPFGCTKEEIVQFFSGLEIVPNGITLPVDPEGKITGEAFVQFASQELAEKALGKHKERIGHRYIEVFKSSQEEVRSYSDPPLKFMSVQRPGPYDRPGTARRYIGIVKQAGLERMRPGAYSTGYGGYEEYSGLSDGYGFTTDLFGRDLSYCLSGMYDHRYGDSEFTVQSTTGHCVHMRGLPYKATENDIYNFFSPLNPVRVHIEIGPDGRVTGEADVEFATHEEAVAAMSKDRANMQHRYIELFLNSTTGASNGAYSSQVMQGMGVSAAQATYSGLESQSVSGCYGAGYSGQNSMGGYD
A digest of the protocol:
(§1)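 Free RNA oligos (0 nM to 30 μM) competed for 1 h at 4°C in HEK293-FT lysate (2.5 mg protein/well) before a 30 min, 4°C pulldown with the same oligos on NHS-Sepharose beads. Bound proteins were quantified by label-free LC-MS/MS and normalised to the control. Kd was found by multiplying EC50, from a four-parameter log-logistic fit, by a protein-dependent depletion factor.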

A further series deals with TUBB4B (UniProt P68371). The method, boiled down: as §1
In another series the target is CPSF4 (UniProt O95639). The method, boiled down:
as §1

A further series has as its target T2, C1QBP (UniProt Q07021).
T2 sequence: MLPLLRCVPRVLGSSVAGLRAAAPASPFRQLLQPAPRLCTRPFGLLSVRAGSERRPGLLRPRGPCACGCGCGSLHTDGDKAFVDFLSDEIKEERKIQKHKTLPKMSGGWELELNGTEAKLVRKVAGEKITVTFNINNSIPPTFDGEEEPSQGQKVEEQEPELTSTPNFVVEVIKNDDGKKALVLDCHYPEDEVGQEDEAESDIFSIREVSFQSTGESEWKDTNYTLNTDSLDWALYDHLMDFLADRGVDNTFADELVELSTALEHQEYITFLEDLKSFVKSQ
A digest of the protocol:
as §1

In another series the target is T3, SF3B2 (UniProt Q13435).
T3 sequence: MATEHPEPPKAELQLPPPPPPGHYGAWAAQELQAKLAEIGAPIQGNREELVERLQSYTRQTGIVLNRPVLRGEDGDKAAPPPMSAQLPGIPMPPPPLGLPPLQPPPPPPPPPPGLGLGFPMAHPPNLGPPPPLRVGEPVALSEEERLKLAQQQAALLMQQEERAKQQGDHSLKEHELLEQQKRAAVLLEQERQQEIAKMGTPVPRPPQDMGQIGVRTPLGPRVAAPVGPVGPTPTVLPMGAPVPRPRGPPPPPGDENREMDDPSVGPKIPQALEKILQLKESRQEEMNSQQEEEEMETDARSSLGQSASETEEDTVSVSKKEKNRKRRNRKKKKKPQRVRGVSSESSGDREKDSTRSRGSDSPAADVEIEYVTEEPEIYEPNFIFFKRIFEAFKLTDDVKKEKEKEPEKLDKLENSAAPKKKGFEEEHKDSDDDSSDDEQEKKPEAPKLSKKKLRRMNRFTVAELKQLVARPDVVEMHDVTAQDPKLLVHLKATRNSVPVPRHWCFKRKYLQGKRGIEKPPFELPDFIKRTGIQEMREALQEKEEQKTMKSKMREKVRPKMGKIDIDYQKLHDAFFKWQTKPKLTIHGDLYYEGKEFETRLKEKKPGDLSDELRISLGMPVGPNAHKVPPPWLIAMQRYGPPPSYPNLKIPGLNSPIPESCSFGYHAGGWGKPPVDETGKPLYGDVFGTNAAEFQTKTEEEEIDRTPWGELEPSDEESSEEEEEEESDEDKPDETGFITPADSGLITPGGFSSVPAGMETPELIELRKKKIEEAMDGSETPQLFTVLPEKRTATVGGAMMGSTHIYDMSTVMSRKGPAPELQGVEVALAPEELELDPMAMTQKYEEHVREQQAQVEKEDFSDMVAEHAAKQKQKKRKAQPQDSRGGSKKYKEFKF
The method, boiled down:
as §1

The next series has as its target MRPL12 (UniProt P52815). The method, boiled down:
as §1

The target in a further series is MRPS26 (UniProt Q9BYN8). The method, boiled down:
as §1

The next series deals with TARDBP (UniProt Q13148). A digest of the protocol: as §1
The target of the next series is ZNFX1 (UniProt Q9P2E3). The method, boiled down:
as §1

In a further series the target is T4, MYEF2 (UniProt Q9P2K5).
T4 sequence: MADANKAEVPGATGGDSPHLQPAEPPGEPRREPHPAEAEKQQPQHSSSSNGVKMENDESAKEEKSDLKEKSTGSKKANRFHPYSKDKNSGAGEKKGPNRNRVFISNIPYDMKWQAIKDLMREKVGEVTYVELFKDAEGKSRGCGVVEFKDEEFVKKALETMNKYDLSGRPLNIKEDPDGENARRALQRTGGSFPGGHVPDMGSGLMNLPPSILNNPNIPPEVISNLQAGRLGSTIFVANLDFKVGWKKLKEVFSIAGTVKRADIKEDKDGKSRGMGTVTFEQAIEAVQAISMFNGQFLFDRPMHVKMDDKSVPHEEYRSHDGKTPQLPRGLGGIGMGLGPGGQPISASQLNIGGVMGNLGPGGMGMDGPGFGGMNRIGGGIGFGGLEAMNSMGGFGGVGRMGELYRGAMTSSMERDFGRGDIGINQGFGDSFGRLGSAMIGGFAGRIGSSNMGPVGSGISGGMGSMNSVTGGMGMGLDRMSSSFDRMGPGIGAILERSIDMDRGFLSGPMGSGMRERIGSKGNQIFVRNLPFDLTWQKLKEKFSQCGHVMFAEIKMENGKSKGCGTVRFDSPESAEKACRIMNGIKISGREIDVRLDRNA
The method, boiled down:
as §1

Chain of TUBB4B (P68371 whole entry): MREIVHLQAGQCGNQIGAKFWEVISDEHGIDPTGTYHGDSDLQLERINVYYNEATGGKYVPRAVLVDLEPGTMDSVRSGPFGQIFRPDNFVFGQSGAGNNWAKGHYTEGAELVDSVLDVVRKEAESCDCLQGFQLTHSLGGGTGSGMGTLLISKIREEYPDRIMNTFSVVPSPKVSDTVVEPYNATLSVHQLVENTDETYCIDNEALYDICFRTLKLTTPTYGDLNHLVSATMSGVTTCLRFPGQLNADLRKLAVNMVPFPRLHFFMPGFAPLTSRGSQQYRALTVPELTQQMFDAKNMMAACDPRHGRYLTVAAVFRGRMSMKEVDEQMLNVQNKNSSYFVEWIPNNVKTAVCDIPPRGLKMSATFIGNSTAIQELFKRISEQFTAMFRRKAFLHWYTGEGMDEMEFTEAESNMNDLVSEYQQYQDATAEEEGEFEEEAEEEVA
Chain of TARDBP (Q13148 whole entry): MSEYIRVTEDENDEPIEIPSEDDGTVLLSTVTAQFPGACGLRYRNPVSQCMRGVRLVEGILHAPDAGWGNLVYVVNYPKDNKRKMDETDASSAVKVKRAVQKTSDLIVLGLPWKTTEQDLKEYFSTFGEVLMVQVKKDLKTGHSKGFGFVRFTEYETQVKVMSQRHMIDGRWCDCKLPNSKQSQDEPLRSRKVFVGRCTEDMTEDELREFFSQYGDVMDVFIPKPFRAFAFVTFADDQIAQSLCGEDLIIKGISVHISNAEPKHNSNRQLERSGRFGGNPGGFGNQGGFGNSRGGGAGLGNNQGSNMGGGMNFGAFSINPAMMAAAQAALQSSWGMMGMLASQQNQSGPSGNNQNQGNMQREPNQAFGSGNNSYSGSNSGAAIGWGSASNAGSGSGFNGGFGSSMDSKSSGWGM
Chain of CPSF4 (O95639 whole entry): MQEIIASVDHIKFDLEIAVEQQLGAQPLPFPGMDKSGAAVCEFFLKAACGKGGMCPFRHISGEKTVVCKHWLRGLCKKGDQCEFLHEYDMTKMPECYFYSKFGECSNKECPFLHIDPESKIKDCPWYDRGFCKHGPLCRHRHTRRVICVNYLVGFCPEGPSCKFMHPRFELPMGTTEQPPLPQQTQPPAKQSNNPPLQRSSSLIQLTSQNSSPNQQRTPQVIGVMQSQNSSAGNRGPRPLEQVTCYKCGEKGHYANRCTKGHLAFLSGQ
Chain of ZNFX1 (Q9P2E3 whole entry): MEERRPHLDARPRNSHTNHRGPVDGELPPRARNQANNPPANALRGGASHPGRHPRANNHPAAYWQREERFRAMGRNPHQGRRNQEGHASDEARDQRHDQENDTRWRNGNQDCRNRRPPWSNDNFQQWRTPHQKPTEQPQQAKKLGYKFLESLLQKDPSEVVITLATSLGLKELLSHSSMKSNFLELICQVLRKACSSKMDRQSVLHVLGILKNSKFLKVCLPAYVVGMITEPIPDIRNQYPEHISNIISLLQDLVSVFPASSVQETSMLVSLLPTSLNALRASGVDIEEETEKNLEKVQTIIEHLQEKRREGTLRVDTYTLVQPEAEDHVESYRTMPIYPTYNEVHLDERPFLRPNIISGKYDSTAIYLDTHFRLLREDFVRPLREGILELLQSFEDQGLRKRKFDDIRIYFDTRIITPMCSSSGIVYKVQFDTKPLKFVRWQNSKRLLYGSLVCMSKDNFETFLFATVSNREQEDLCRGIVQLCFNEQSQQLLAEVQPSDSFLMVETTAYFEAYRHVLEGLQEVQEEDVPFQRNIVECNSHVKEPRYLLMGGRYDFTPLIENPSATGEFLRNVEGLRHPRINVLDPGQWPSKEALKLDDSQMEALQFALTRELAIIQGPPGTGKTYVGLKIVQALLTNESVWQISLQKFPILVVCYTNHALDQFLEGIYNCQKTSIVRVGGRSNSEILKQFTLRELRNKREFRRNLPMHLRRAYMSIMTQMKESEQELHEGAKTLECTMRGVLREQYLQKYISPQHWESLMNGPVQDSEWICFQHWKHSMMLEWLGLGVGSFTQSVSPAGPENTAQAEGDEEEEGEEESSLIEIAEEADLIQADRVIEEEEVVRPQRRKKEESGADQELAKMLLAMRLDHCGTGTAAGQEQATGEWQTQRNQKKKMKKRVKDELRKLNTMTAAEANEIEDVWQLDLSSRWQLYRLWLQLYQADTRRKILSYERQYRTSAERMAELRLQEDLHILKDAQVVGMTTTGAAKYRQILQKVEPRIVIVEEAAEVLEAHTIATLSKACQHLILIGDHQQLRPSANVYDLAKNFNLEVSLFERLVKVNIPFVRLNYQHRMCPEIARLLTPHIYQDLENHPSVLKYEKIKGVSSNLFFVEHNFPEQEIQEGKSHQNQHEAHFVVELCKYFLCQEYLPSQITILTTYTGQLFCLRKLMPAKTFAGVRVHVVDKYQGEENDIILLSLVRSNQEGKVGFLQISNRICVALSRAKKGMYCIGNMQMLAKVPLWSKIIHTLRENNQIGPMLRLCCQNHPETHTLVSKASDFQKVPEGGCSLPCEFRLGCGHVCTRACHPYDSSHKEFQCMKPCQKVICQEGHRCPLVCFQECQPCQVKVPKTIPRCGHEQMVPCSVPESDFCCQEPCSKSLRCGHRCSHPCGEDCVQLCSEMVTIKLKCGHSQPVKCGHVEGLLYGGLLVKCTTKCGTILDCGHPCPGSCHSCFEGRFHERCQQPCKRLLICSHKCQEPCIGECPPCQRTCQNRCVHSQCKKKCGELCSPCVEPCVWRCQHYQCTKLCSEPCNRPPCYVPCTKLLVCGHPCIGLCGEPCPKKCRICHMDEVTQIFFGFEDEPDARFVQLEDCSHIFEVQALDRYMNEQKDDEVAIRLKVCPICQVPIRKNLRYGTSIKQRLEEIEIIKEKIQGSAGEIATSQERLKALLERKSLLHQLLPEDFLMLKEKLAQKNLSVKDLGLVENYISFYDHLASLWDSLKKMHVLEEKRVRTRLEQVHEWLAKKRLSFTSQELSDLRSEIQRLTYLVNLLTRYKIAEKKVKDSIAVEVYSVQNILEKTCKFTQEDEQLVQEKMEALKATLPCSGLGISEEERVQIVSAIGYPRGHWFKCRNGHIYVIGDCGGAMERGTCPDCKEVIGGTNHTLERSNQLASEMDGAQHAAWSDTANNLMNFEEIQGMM

As to AAUAAA, the Kd was 6.29 µM with HNRNPF; 2.43 µM with TUBB4B; 0.00595 µM in the series with CPSF4; 0.477 µM in the series with C1QBP; 0.719 µM with SF3B2.
CUGUCCU registered an equilibrium dissociation constant (Kd) with MRPL12 of 0.0437 µM.
On to UAUUUAU, for which the Kd in the series with MRPS26 came out at 0.0159 µM; with TARDBP, 1.32 µM; in the series with ZNFX1, 0.374 µM; with MYEF2, 2.7 µM.
